Measurements: the nanobody polyreactivity screen of Harvey et al. (2022)

Experiment: yeast display, Sf9 membrane polyspecificity reagent, FACS + sequencing; frameworks hold sequencing errors
Procedure, shortened: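 Synthetic nanobody libraries on Saccharomyces cerevisiae BJ5465 were galactose-induced for 36–48 hours, stained 1 hour at 4 °C with 10% biotinylated, detergent-solubilized Sf9 membrane reagent and enriched on streptavidin microbeads. FACS then separated cells into low and high (top ~1%) gates by anti-HA (expression) and streptavidin (reagent binding) fluorescence. Genes were colony-PCR amplified, MiSeq 2 × 250 sequenced and CDR-length filtered. A clone's polyreactivity label is that of its gate of origin.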

Sequence	polyreactivity (PSR sort gate)
QVQLVESGGRLVQAGGSLRLSCAASGFTFRYYAMGWYRQAPGKERELVAAITWSGGRTYYADSVKGRFTISRDNAKNTVFLQMNSLKPEDTAVYSSNTPSLWYGEDYWGHGTQVTVSS	high polyreactivity
QVQLVESGGRLVQAGGSLRLSCAASGGIFTAYTMGWYRQAPGKESELVAVISSGGGRTYYADSVKGRFTISRDNAKNTVYLQMNSLKPEDTAVYYCNARVYVSANKYDYWGQGTQVTVSS	high polyreactivity
QVQLVESGGRLVQAGGSLRLSCAASGHIFFYYTMGRYRPGPGKERELVAGITIGGSTNYADSVKGRFTISRDNAKNTVYLLMNSLKPADTAVYYCNVVKYVYISSYWEYYYWGQGAQVTVSS	low polyreactivity
QVQLVESGGRLVQAGGSLRLSCAASGITQGYYAMGWYRQAPGKERELVAAISYRGGNTYYADSVKGRFTISRDNAKNTVYLQMNSLKPEDTAVYYCNADLGYESGWWSKYDYWGQGTQVTVSS	low polyreactivity
QVQLVESGGRLVQAGGSLRLSCAASGLIFNDNAMGWYRQAPGKERELVAAISWGGGTTYYADSVKGRFSNSRDNAKYTVFLQMNSLKPEDTAVYYCAAEEAMFYDFYYVLLDYWGQGTQVTVSS	high polyreactivity
QVQLVESGGRLVQAGGSLRLSCAASGLIFRRNAMGWYRQAPGKERELVSAISRSSGSTYYADSVKGRFTISRDYAKNSVYFHMNSLKPDDTAVYYCDAGYRAGPGYGMYSWGQGTQVTVSS	high polyreactivity
QVQLVESGGRLVQAGGSLRLSCAASGLIFYTYAMGWYRKAPGKERELVADINRSDGSTYYADSVKGRFTISRDNAKNTVYLQMNSLKPEDTAVYYCAVVGPYYSRFGGRYYYWGQGTQVTVSS	low polyreactivity
QVQLVESGGRLVQAGGSLRLSCAASGLIIDVNTMGWYRQAPGKDRELVAAITGSGGRTYYADSVKGRFTISRDNAKNTVYLQMNSLKPEDSAVYYCNADTSYVGFDFWGQGTQVTVSS	low polyreactivity
QVQLVESGGRLVQAGGSLRLSCAASGLILLPNTMGWYRQAPGKESEMVAAISYSGGGTYYADSVKARFTISRDNAKNSVYLQMNSLKPEDTAVYYCAAYVKRESAPYGYWGQGTQVTVSS	low polyreactivity
QVQLVESGGRLVQAGGSLRLSCAASGRIFAFYAMGWYRQAPGKERELVAAITSGGSTKYADSVKGRFTISRDNAKNTVYLQMNSLKPEDTAVYYCAAVESGYGSKRFYYWGQGTQVTVSS	high polyreactivity
QVQLVESGGRLVQAGGSLRLSCAASGRIFGDYAMGRYRQAPGKERDLVAAISWSDGSTYYADSVKGRFTISRDNAKNTVYLQMNSLTPEDTAVYYCPAYGWGYRYVDVVVSDFYYWGQGTQVTVSS	low polyreactivity
QVQLVESGGRLVQAGGSLRLSCAASGRIFTQYAMGWYRQSPGKERELVAAINASDGSTYADSVKGRFTSSRDNAQNTVYLQMKRLKPADTAVYYCNVTGGTYDFTRWSEFDHWGQGTQVTVSS	low polyreactivity
QVQLVESGGRLVQAGGSLRLSCAASGRIIGVNAMGWYRQAPGKERELVATITSGGSTYADSVKGRFTISRDNAKNTVYLQMNSLKPEDTAVYFCNALIYKRVTRYPYVRLMDYWGQGTQVTVSS	high polyreactivity
QVQLVESGGRLVQAGGSLRLSCAASGRILYVNNMGWYRQAPGKERELVAGITSRVGSTYYADSVKGRFTISRDNAKNTVYLQMNSLKPEDSAVYYCNARSTWRHRRDQVDFDYWGQGTQVSVSS	low polyreactivity
QVQLVESGGRLVQAGGSLRLSCAASGRTFGYYAKGLSRQAQGKEREFVAAISFRTTSTYYADSVKGRFTISRDNAKNTVYLQMISLKPEDTAVYYCNVVVKGAWDYYPYDYWGQGPQVTVSS	high polyreactivity
QVQLVESGGRLVQAGGSLRLSCAASGRTFIGYARGWYRQAPGKERELVAGISWSGGSTYYADSVKGRFTISRDNAKNTVYLQMNSLKPEDTAVYYCAARGRWSTEYGYWGQGTQVTVSS	low polyreactivity

Sequence	polyreactivity (PSR sort gate)
QVQLVESGGRLVQAGGSLRLSCAASGRTFWFNDMGWYRQAPGKVRQLVAAISDTDGSTYYADSVKGRFTISRDNAKNSVYLQMNSLKPVDTAVYYCAPEAYYGYLYAYDYWGQGTQVTVSS	low polyreactivity
QVQLVESGGRLVQAGGSLRLSCAASGRTFYIYAMGWYRQAPGKERELVADISWSGGSTYYADSVKGRFTISRDNAKNTVYLQMNSLKPEDTAVYYCAADLYVYPNWYLYYYWGQGTQVTVSS	high polyreactivity
QVQLVESGGRLVQAGGSLRLSCAASGSIFAVNAMGWYRQAPGKERELVAAIDWSDGITYYADSVKGRFTISRDNAKNTVYLKMNSLKPEDTALNYCAADATAYGWYVEQFSFYDNDYWGQGTQVTVSS	high polyreactivity
QVQLVESGGRLVQAGGSLRLSCAASGSIFDNYVMGWYRQAPGKERELVAAINSSGGSTYYADSVKGRFTISRDNAKNTVYLQMNSLKPEDTAVYYCIATDGITPYDLTDIEFDYWGQGTQVTVSS	low polyreactivity
QVQLVESGGRLVQAGGSLRLSCAASGSIFLAYDMGWYRQAPGKERELVAGITSVGTTYYADSVKGRFTISRDNAKNTVYFQMNSLKPEDTAVYYCAAQLYIRNHFRYASTAAYDMGYWGQGTQVTVSS	low polyreactivity
QVQLVESGGRLVQAGGSLRLSCAASGSIFYYYAKGLYRKAPVTARELVAAISTRGGRTYYADSVKGRFTISRDNAKTTVYLQMNSLKPEDTAVYYCNVPYYLPSYLSGYDYWGQGTQVTVSS	low polyreactivity
QVQLVESGGRLVQAGGSLRLSCAASGSIINVNTMGWYRQAPGKERELVAAISSGGRTYYADSVKGRFTISRDNAKNTVYLQMNSLKPEDTAVYYCNTVLGVYDYDYWGQGTQVTVSS	low polyreactivity
QVQLVESGGRLVQAGGSLRLSCAASGSTFAVYAMGWYRQAPGKERELVAAINRSGDSTYYADSVKGRFTISRDNAKNTVYLQMNSLKPEDTAVYYCAVSAWTRSHALYYWGQGTQVTVSS	high polyreactivity
QVQLVESGGRLVQAGGSLRLSCAASGSTFGSYTMGWYRQAPGKERELVAAINWSGGNTYYADSVKGRFTISRDYAKNTVYLQMNSLKPEDTAVYFCAAAYYIYGFEGDYWGHGTQVTVSS	low polyreactivity
QVQLVESGGRLVQAGGSLRLSCAASGSTFSYYDMGGYRQAPGKEMELVADISWSGGSTYYADSVKGRFTISRDNAKNTVYLQMNSLKPEDTAVYYCAARGYVRWYNRYDYWGQGTQVTVSS	low polyreactivity
QVQLVESGGRLVQAGGSLRLSCAASGSTINKYAMGWYRQAPGKERELVAAISRSGGSTNYADSVKGRFTISRDNAKNTVYLQMNSLKPEDNAVYYCNRTRYRSFHYDYWGQGTQVTVSS	high polyreactivity
QVQLVESGGRLVQAGGSLRLSCAASGYIFERNAMGWYRPAPGKERELVAAITDDGDDTYYADSVKGRFTISRDNEKNTVYLQLYSLKPEDTAVYYCAKDLYYGDYYYWGQGTQVTVSS	low polyreactivity
QVQLVESGGRLVQAGGSLRLSCAPSGRTFRWYAMGWYRQSPGKERELVAAISRSGGSTYYADSVKGRFTISRDNAKYTVFLQMNILKPEDTAVYYCANVRYDFKLDYWGQGTQVTVSS	high polyreactivity
QVQLVESGGRLVQAGGSLRLSCDASGRTFGKYALGWYRQAPGKEREFVATITRSGDSTYYADSVKGRFTISRDNAKNTVYLQMNSLKPEDTAVYNCAKDTYGVLSYFQVSREYWGQGTQVTVSS	low polyreactivity
QVQLVESGGRLVQAGGSLRLSGAASGRTFAKYAMGWYRQAPGKERELVAAINSSGDSTYYADSVKGRFTISRDNAKNTVYLQMNSLKPEDTAVYYCATRYRSSQWYSPYKYDYWGQGTQVTVSS	low polyreactivity
